Source: patent US20260066079A1 (published 2026)

Molecular target: T1, TL1A in human blood (endogenous) (human, UniProt O95150 72-251, limits assumed)
T1 sequence (looked up): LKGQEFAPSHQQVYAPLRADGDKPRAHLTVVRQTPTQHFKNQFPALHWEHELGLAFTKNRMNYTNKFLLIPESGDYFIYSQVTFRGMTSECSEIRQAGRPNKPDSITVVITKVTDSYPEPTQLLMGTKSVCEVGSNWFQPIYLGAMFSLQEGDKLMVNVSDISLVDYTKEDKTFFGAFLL
Test: cell-based or functional assay

B1: A147 (antibody, human IgG1, V domains shown)
VH: QVQLVQSGAEVKKPGASVKVSCKASGFDIQDTYMHWVKQRPGQGLEWMGRIEPASGHIKYDPKFQGRVTMTRDTSTSTVYMELSSLRSEDTAVYYCARSGGLPDWWGQGTTVTVSS
VL: EIVLTQSPGTLSLSPGERATLSCRASSSVSYMYWYQQKPGQAPRPLIYATSNLASGIPDRFSGSGSGTDFTLTISRLEPEDFAVYYCQQWEGNPRTFGGGTKLEIK
% Inhibition at 1 nM Ig (inhibition of interferon gamma release in human blood): 51.3% | % Inhibition at 10 nM Ig (inhibition of interferon gamma release in human blood): 72.4%

B2: A217 (antibody, human IgG1, V domains shown)
VH: QVQLVQSGAEVKKPGASVKVSCKASGFDIQDTYMHWVKQRPGQGLEWMGRIDPASGHTKYDPKFQVRVTITRDTSTSTVYMELSSLRSEDTAVYYCARSGGLPDVWGQGTTVTVSS
VL: EIVLTQSPGTLSLSPGERATLSCRASSSVSYMYWYQQKPGQAPRPLIYATSNLASGIPDRFSGSGSGTDFTLTISRLEPEDFAVYYCQQWEGNPRTFGGGTKLEIK
% Inhibition at 1 nM Ig (inhibition of interferon gamma release in human blood): 46% | % Inhibition at 10 nM Ig (inhibition of interferon gamma release in human blood): 72.2%

B3: A213 (antibody, human IgG1, V domains shown)
VH: QVQLVQSGAEVKKPGASVKVSCKASGFDIQDTYMHWVRQRPGQGLEWMGRIDPASGHTKYDPKFQVRVTITTDTSTSTVYMELSSLRSEDTAVYYCARSGGLPDVWGQGTTVTVSS
VL: EIVLTQSPGTLSLSPGERATLSCRASSSVSYMYWYQQKPGQAPRPLIYATSNLASGIPDRFSGSGSGTDFTLTISRLEPEDFAVYYCQQWEGNPRTFGGGTKLEIK
% Inhibition at 1 nM Ig (inhibition of interferon gamma release in human blood): 48.6% | % Inhibition at 10 nM Ig (inhibition of interferon gamma release in human blood): 69.8%

B4: A220 (antibody, human IgG1, V domains shown)
VH: QVQLVQSGAEVKKPGASVKVSCKASGFDIQDTYMHWVKQRPGQGLEWMGRIDPASGHTKYDPKFQVRVTMTRDTSTSTAYLELSSLRSEDTAVYYCARSGGLPDVWGQGTTVTVSS
VL: EIVLTQSPGTLSLSPGERATLSCRASSSVSYMYWYQQKPGQAPRPWIYATSNLASGIPDRFSGSGSGTDFTLTISRLEPEDFAVYYCQQWEGNPRTFGGGTKLEIK
% Inhibition at 1 nM Ig (inhibition of interferon gamma release in human blood): 36.9% | % Inhibition at 10 nM Ig (inhibition of interferon gamma release in human blood): 63.2%

B5: A212 (antibody, human IgG1, V domains shown)
VH: QVQLVQSGAEVKKPGASVKVSCKASGFDIQDTYMHWVRQRPGQGLEWIGRIDPASGHTKYDPKFQVRATITTDTSTSTAYLELSSLRSEDTAVYYCARSGGLPDVWGQGTTVTVSS
VL: EIVLTQSPGTLSLSPGERATLSCRASSSVSYMYWYQQKPGQAPRPLIYATSNLASGIPDRFSGSGSGTDFTLTISRLEPEDFAVYYCQQWEGNPRTFGGGTKLEIK
% Inhibition at 1 nM Ig (inhibition of interferon gamma release in human blood): 46.8% | % Inhibition at 10 nM Ig (inhibition of interferon gamma release in human blood): 71.2%

B6: A219 (antibody, human IgG1, V domains shown)
VH: QVQLVQSGAEVKKPGASVKVSCKASGFDIQDTYMHWVKQRPGQGLEWMGRIDPASGHTKYDPKFQVRVTITRDTSTSTVYLELSSLRSEDTAVYYCARSGGLPDVWGQGTTVTVSS
VL: EIVLTQSPGTLSLSPGERATLSCRASSSVSYMYWYQQKPGQAPRPLIYATSNLASGIPDRFSGSGSGTDFTLTISRLEPEDFAVYYCQQWEGNPRTFGGGTKLEIK
% Inhibition at 1 nM Ig (inhibition of interferon gamma release in human blood): 59.8% | % Inhibition at 10 nM Ig (inhibition of interferon gamma release in human blood): 75.2%
